Results as given in US5858646.

Target: uncleaved ~95 kD pol gene product of recombinant AcNPV-HIVYKpol (HIV-1 pol polypeptide lacking the first 91 amino acids at the NH2-terminus of the HIV-pol protease) (HIV-1)
Test: ELISA on plates coated with pol, no primary antibody, read at 450 nm

Question: Which OD does the source give for “goat anti-human Ig linked to horse radish peroxidase (Tago Diagnostics, cat 2393) (tool reagent)” here?
Answer: < 0.1 OD
